Key:
Experiment in all cases: ITC; H3K4me2 peptide injected (19 x 2 ul) into the protein; 25 °C; 25 mM Tris pH 8.0, 100 mM NaCl; iTC 200; one-site model
[1] = target: PHD_(Pygo2)–HD1B9L complex with Pygo2 W377F (human) (UniProt Q9BRQ0)
[2] = target: PHD_(Pygo2)–HD1_(BCL9) complex (human) (UniProt Q9BRQ0)
[3] = target: PHD_(Pygo2)–HD1B9L complex with Pygo2 I344A (human) (UniProt Q9BRQ0)
[4] = target: free PHD finger of human Pygo2 (human)
[5] = target: PHD_(Pygo1)–HD1B9L complex (human) (UniProt Q9Y3Y4)
[6] = target: free PHD finger of human Pygo1 (human)
[7] = target: PHD_(Pygo1)–HD1_(BCL9) complex (6×His-tagged, PHD linked to HD1) (human) (UniProt Q9Y3Y4)
[8] = target: PHD_(Pygo2)–HD1B9L complex (6×His-tagged, PHD linked to HD1; ITC construct) (human) (UniProt Q9BRQ0)

Substance “15-mer H3K4me2 histone tail peptide (histone H3 tail dimethylated at lysine 4)” has a Kd [1] of 11.5 µM, a stoichiometry N [2] of 1 and a Kd [3] of 19.5 µM. For the same substance, the Kd [4] was 4.95 µM, the stoichiometry N [4] was 1 and the stoichiometry N [5] was 1. The Kd [6] was 5.93 µM, the stoichiometry N [6] was 1 and the fold increase in affinity over free PHD (Pygo1) [7] was 2 fold. For the same substance, the stoichiometry N [7] was 1, the Kd [8] was 1.83 µM and the stoichiometry N [8] was 1.
